Measurements as given in PMC12607152.

Key:
[1] = biological target: T1, CcpA (catabolite control protein A) (Staphylococcus aureus (XN108?)) (UniProt P99175); assay: EMSA; settings: not given in the material; EMSA as previously described (ref 22)
T1 sequence: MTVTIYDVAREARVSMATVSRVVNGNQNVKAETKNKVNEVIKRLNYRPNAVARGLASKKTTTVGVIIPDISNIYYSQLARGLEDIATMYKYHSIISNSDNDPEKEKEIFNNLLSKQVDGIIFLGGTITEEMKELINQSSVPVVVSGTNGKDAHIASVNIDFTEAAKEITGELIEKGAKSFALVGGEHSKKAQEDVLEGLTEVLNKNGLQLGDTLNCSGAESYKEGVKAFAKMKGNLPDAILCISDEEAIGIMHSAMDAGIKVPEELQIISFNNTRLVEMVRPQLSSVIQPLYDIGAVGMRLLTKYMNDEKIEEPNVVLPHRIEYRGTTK

[2] = biological target: T1, CcpA (catabolite control protein A) (Staphylococcus aureus (XN108?)); assay: competition; settings: not given in the material; EMSA as previously described (ref 22)

Sequence	binding [1]	binding [2]
CAGTCCTCAACTCTTTTAATGTTTTCATGTTGTCACCGCCTTTCGTAAACCTAATATAATACGAAATTTTCGTATTGTCAACATTAAATACGTTTTTTTCGTAAAAAACTTTACTATGATATGAAAATTTCGTATAATAAGAAAAAAGGAGGTAAGTAAT (double strand) [PcI probe (160-bp region upstream of cI)]	binds	
CAGTCCTCAACTCTTTTAATGTTTTCATGTTGTCACCGCCTTTCGTAAACCTAATATAATACGAAATTTTCGTATTGTCAACATTAAATACGTTTTTTTCGTAAAAAACTTTACTATGATATGAAAATTTCGTATAATAAGAAAAAAGGAGGTAAGTAAT (double strand) [PcI unlabeled competitor]		binds
